Measured values from paper PMC10397247.

How the values were obtained:
Assay in all cases: two-hybrid library CCNG1;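 also: natural log of median RNA to DNA barcode read ratio; higher means stronger binding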
[1] = target: T1, 4H3175-bH
T1 chain: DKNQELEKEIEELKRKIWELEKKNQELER

[2] = target: T2, 4H3277-bH
T2 chain: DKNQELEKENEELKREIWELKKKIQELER

[3] = target: T3, 4H3298-bH
T3 chain: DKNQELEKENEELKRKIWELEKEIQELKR

[4] = target: T4, 4H3462-bH
T4 chain: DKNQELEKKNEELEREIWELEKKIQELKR

[5] = target: T5, 4H3497-bH
T5 chain: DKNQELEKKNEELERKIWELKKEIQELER

[6] = target: T6, 4H3613-bH
T6 chain: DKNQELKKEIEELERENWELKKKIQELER

[7] = target: T7, 4H3628-bH
T7 chain: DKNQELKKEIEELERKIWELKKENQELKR

[8] = target: T8, 4H3926-bH
T8 chain: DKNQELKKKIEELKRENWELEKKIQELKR

[9] = target: T9, 4H591-bH
T9 chain: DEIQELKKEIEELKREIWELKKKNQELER

[10] = target: T10, 4H626-bH
T10 chain: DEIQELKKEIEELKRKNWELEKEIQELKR

[11] = target: T11, 4H906-bH
T11 chain: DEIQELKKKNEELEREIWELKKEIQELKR

[12] = target: T12, 4H918-bH
T12 chain: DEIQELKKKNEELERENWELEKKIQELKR

[13] = target: T13, O2-bP
T13 chain: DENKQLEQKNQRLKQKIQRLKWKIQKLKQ

[14] = target: T14, O3-bP
T14 chain: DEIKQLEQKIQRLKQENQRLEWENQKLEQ

[15] = target: T15, O4-bP
T15 chain: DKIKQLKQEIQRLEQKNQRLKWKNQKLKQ

[16] = target: T16, O5-bP
T16 chain: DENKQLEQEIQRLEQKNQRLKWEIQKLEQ

[17] = target: T17, O6-bP
T17 chain: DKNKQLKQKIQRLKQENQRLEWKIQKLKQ

[18] = target: T18, O7-bP
T18 chain: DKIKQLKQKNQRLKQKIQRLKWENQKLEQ

[19] = target: T19, O8-bP
T19 chain: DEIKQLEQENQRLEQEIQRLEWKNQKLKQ

[20] = target: T20, O9-bP
T20 chain: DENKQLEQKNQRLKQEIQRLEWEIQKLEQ

[21] = target: T21, P5A
T21 chain: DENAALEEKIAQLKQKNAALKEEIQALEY

[22] = target: T22, P6A; conditions: mean of both orientations
T22 chain: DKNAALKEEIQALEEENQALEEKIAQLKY

[23] = target: T23, P7A
T23 chain: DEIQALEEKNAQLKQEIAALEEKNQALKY

[24] = target: T24, P8A
T24 chain: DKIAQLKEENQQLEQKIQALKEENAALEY

[25] = target: T25, P9A
T25 chain: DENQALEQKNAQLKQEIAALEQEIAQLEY

DKNQELEKEIEELKRKIWELEKKNQELER [4H3175-bH]
interaction score [1]: 0.103
interaction score [2]: -0.0103
interaction score [3]: -0.132
interaction score [4]: 0.891
interaction score [5]: 0.402
interaction score [6]: -0.475
interaction score [7]: -0.799
interaction score [8]: -0.189
interaction score [9]: -2.15
interaction score [10]: -1.62
interaction score [11]: 0.787
interaction score [12]: -1.69

DENKQLEQKNQRLKQKIQRLKWKIQKLKQ [O2-bP]
interaction score [13]: -1.2
interaction score [14]: -0.635
interaction score [15]: -0.811
interaction score [16]: -0.804
interaction score [17]: -0.766
interaction score [18]: -0.723
interaction score [19]: -1.21
interaction score [20]: -1.4

DENAALEEKIAQLKQKNAALKEEIQALEY [P5A]
interaction score [21]: -1.41
interaction score [22]: 1.19
interaction score [23]: -1.31
interaction score [24]: -1.04
interaction score [25]: -1.38
